Changes are numbered by the printed parent chain. Names may count otherwise. Blank lines part the entries; values can stand above or below the binder they belong to.
What was measured:
native MS = target: the molecule itself; experiment: native MS
ParC, full length [1] = target: T1, ParC, full length (E. coli, UniProt P0AFI2 1-752); experiment: native MS
T1 sequence (looked up): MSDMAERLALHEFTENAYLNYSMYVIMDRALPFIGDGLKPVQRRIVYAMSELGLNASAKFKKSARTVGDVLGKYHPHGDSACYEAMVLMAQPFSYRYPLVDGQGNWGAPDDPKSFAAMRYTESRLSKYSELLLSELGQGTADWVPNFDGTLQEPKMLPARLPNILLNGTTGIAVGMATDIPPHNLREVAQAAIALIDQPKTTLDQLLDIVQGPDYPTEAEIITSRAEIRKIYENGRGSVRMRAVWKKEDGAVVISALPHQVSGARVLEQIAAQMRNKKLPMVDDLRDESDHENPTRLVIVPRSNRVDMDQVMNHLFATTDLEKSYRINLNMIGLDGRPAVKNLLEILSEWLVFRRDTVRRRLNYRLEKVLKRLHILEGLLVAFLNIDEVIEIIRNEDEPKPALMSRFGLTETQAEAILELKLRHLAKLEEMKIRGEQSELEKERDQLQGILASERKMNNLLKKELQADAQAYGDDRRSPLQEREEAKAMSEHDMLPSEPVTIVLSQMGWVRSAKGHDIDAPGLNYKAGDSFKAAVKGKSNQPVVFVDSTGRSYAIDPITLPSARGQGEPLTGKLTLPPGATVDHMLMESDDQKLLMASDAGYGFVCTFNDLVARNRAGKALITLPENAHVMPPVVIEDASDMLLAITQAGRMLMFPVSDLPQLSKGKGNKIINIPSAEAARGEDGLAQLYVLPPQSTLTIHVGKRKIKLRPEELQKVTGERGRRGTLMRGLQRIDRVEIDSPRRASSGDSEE

ParC, full length [2] = target: T1, ParC, full length; experiment: ITC
ParC, full length [3] = target: T1, ParC, full length; experiment: SEC

stoichiometry N (ParC, full length [1]): 1 ParC dimer per LH dimer | Kd (ParC, full length [2]): 690 nM | dH (ParC, full length [2]): -7.48 kcal/mol | stoichiometry N (ParC, full length [2]): 0.84
B1: MukB long hinge (LH, 568-863) (domain or fragment, E. coli, UniProt P22523 568-863, looked up)
chain: SLSDSVSNAREERMALRQEQEQLQSRIQSLMQRAPVWLAAQNSLNQLSEQCGEEFTSSQDVTEYLQQLLEREREAIVERDEVGARKNAVDEEIERLSQPGGSEDQRLNALAERFGGVLLSEIYDDVSLEDAPYFSALYGPSRHAIVVPDLSQVTEHLEGLTDCPEDLYLIEGDPQSFDDSVFSVDELEKAVVVKIADRQWRYSRFPEVPLFGRAARESRIESLHAEREVLSERFATLSFDVQKTQRLHQAFSRFIGSHLAVAFESDPEAEIRQLNSRRVELERALSNHENDNQQQR
stoichiometry N (native MS): 2

binding result (ParC, full length [3]): binds
B2: ParE-His (enzyme, E. coli, UniProt P20083 1-630, looked up)
chain: MTQTYNADAIEVLTGLEPVRRRPGMYTDTTRPNHLGQEVIDNSVDEALAGHAKRVDVILHADQSLEVIDDGRGMPVDIHPEEGVPAVELILCRLHAGGKFSNKNYQFSGGLHGVGISVVNALSKRVEVNVRRDGQVYNIAFENGEKVQDLQVVGTCGKRNTGTSVHFWPDETFFDSPRFSVSRLTHVLKAKAVLCPGVEITFKDEINNTEQRWCYQDGLNDYLAEAVNGLPTLPEKPFIGNFAGDTEAVDWALLWLPEGGELLTESYVNLIPTMQGGTHVNGLRQGLLDAMREFCEYRNILPRGVKLSAEDIWDRCAYVLSVKMQDPQFAGQTKERLSSRQCAAFVSGVVKDAFILWLNQNVQAAELLAEMAISSAQRRMRAAKKVVRKKLTSGPALPGKLADCTAQDLNRTELFLVEGDSAGGSAKQARDREYQAIMPLKGKILNTWEVSSDEVLASQEVHDISVAIGIDPDSDDLSQLRYGKICILADADSDGLHIATLLCALFVKHFRALVKHGHVYVALPPLYRIDLGKEVYYALTEEEKEGVLEQLKRKKGKPNVQRFKGLGEMNPMQLRETTLDPNTRRLVQLTIDDEDDQRTDAMMDMLLAKKRSEDRRNWLQEKGDMAEIEV

B3: MatP^4A (K71A, Q72A, R75A and R77A) (domain or fragment, E. coli, UniProt P0A8N0 1-132, looked up)
chain: MKYQQLENLESGWKWKYLVKKHREGELITRYIEASAAQEAVDVLLSLENEPVLVNGWIDKHMNPELVNRMAATIAAARKRHFNAEHQHTRKKSIDLEFIVWQRLAGLAQRRGKTLSETIVQLIEDAENKEKY
stoichiometry N (native MS): 2

B4: MatP^4E (K71E, Q72E, R75E and R77E) (domain or fragment, E. coli, UniProt P0A8N0 1-132, looked up)
chain: B3 chain with A71E, A72E, A75E, A77E
stoichiometry N (native MS): 2

Reference: doi:10.1101/2021.03.03.433707 (bioRxiv, 2021)
